Literature values, collected in paper PMC5904127.

Target: apocalmodulin (UniProt P0DP23)

Kd: 2000 nM
Substance: neuromodulin IQ domain (from UniProt P17677)
